Publication PMC10507807, “De novo design of a stapled peptide targeting SARS-CoV-2 spike protein receptor-binding domain” (RSC Medicinal Chemistry, 2023)

Target: recombinant SARS-CoV-2 spike B.1.617.2 with His-tag (SARS-CoV-2), P0DTC2
Assay: BLI

## GTEWLYKVWKAFVDNMS (designed binder, modifications not checked) [stapled peptide pep39]
  Kd: 4.1 µM
